The source of these data is US10577424 (BEIJING MABWORKS BIOTECH, dated 2020).

Residue numbers refer to the chain shown, from its start. Like-named read-outs stand apart in the source and are kept apart here.

Test [1] concerns the target T1, human VISTA (ECD)-his (Sino Biological, Cat #:13482-H08H) (human, UniProt Q9H7M9 33-194).
T1 construct: extracellular domain; Bought protein; also called hVISTA(ECD)-his; recombinant human VISTA(ECD)-his; not shown: his tag
T1 sequence (looked up): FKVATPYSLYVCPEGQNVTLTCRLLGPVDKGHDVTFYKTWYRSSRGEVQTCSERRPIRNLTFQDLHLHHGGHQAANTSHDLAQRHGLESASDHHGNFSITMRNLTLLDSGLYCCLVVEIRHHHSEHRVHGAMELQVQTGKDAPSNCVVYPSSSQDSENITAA
The test is described as follows: SPR (BIAcore 8K), human VISTA (ECD)-his coupled to the chip, antibody injected. The protocol:
(§1) They were also tested in SPR assays for their binding affinities to human and monkey VISTA with the BIAcore™ 8K instrument (GE Life Sciences). Briefly, 100-200 response units (RU) of human VISTA (ECD)-his protein (Sino Biological, CN, Cat #:13482-H08H) or monkey VISTA (ECD)-his protein (Sino Biological, CN, Cat #:90801-K08H) were coupled to CM5 biosensor chips (Cat #: BR-1005-30, GE Life Sciences), followed by blocking of un-reacted groups with 1M ethanolamine. Serially diluted antibodies at concentrations ranging from 0.3 µM to 10 µM were injected into the SPR running buffer (HBS-EP buffer, pH7.4, GE Life Sciences; US; Cat #:BR-1006-69) at 30 µL/minute. The binding capacitities were calculated with the RUs of blank controls subtracted. The association rate (k_a) and dissociation rate (k_d) were calculated using the one-to-one Langmuir binding model (BIA Evaluation Software, GE Life Sciences). The equilibrium dissociation constant K_D was calculated as the k_d/k_a ratio.
In general terms: SPR reads the build-up and loss of mass on a sensor chip optically.

Test [2] has as its target T2, monkey VISTA (ECD)-his (Sino Biological, Cat #: 90801-K08H) (cynomolgus monkey).
T2 construct: extracellular domain; Bought protein; also called cynoVISTA(ECD)-his; cynomolgus VISTA (ECD)-his
The test is described as follows: ELISA, plate coated with monkey VISTA (ECD)-his, OD450 [panel B]. For orientation: ELISA stands for enzyme-linked immunosorbent assay.

The target in test [3] is T1, human VISTA (ECD)-his (Sino Biological, …). The test is described as follows: ELISA, plate coated with human VISTA (ECD)-his, OD450 [panel A].
The target is the same in test [4]. The description is as above. This is another data set of the same source.
For test [5], the target named is T3, mouse VISTA-his (Sino Biological, Cat #:511550-M08H) (mouse, UniProt Q9D659 33-191).
T3 construct: extracellular domain; Bought protein; also called muVISTA-his; mouse VISTA (ECD)-his; not shown: his tag
T3 sequence (looked up): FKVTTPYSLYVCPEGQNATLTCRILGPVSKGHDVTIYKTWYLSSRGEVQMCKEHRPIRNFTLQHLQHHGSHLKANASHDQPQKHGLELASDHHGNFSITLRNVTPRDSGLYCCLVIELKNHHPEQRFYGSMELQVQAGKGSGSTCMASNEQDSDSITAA
The test is described as follows: ELISA, plate coated with mouse VISTA-his, OD450 [panel C].

The target in test [6] is T2, monkey VISTA (ECD)-his (Sino …). The test is described as follows: ELISA, plate coated with monkey VISTA (ECD)-his, OD450 [panel B]. This is another data set of the same source.
Test [7] addresses T4, mouse VISTA expressed on HEK293A cells (mouse, UniProt Q9D659 33-308).
T4 construct: also called HEK293A/mouseVISTA; HEK293A/mouse VISTA
T4 sequence: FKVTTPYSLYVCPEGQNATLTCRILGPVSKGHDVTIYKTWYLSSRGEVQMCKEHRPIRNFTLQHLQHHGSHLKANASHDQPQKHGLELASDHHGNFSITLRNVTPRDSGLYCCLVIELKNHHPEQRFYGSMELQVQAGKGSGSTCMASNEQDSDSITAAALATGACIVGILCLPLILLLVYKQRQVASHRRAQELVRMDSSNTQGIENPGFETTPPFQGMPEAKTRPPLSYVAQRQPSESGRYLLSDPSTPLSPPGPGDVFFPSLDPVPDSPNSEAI
The test is described as follows: FACS on HEK293A/mouse VISTA cells, MFI [panel C].

Test [8] concerns the target T2, monkey VISTA (ECD)-his (Sino …). The test is described as follows: SPR (BIAcore 8K), monkey VISTA (ECD)-his coupled to the chip, antibody injected. The protocol:
as §1

B1: chimeric 161E5 antibody (antibody, human IgG1, kappa, V domains shown)
VH: QVQLKQSGAELVRPGASVKLSCKASGYSFTDYYINWVKQRPGQGLEWIARIFPGSGNAYYNEKFKDKATLTVEKSSSAAYMQLSSLTSEDSAVYFCARDDSFYGYWYFDVWGTGTTVTVSS
VL: NIMMTQSPSSLAVSAGEKVTMSCKSSQSVLYSSNQKNYLAWYQQKPGQSPKLLIYWASTRESGVPDRFTGSGSGTDFTLTISSVQAEDLAVYYCHQYLSSYTFGGGTKLEIKR
In general, Kd refers to the equilibrium constant for the complex coming apart. For orientation: EC50 (read off the curve) means the concentration giving half of the maximal effect. B1 showed a Kd in test [1] of 0.0139 nM. Further, the “EC50 (read off the curve)” value is roughly 30 ng/mL in test [2], roughly 30 ng/mL in test [3], roughly 20 ng/mL in test [4] and roughly 30 ng/mL in test [6]. For the same molecule, the binding result in test [5] is listed as “no binding (tested: about log 4.3 ng/ml (about 20000 ng/ml))”; in test [7], “no binding (tested: log 4 ng/ml (10000 ng/ml))”.

B2: 161E5-VH2VL2 (antibody, human IgG1, kappa, V domains shown)
VH: QVQLVQSGAEVKKPGASVKVSCKASGYSFTDYYINWVRQAPGQGLEWIARIFPGSGNAYYNEKFKDRATLTVDKSTSTAYMELSSLRSEDTAVYYCARDDSFYGYWYFDVWGQGTTVTVSS
VL: NIMMTQSPATLSVSPGERATLSCKSSQSVLYSSNQKNYLAWYQQKPGQAPRLLIYWASTRESGVPDRFSGSGSGTEFTLTISSLQSEDFAVYYCHQYLSSYTFGGGTKVEIKR
notes: One of the 5 humanized 161E5 antibodies, human IgG1/kappa; also called humanized antibody 161E5-VH2VL2
As to B2, the 50% effective concentration (EC50 (read off the curve)) in test [2] and in test [3] was roughly 30 ng/mL in each case.

B3: 161E5-VH3VL3 (antibody, human IgG1, kappa, V domains shown)
VH: B2 VH with A40R, Y95F
VL: B2 VL with A49S
notes: One of the 5 humanized 161E5 antibodies, human IgG1/kappa; also called humanized antibody 161E5VH3VL3
Turning to B3, the Kd in test [1] was determined as 0.0226 nM; in test [8], 0.0399 nM. Further, the “EC50 (read off the curve)” value in test [2] and in test [3] was roughly 30 ng/mL throughout.

B4: 161E5-VH0VL0 (antibody, human IgG1, kappa, V domains shown)
VH: B2 VH with I48M, A49G, A68V, L70M, V72R, K74T, A79V
VL: B2 VL with N1E, M3V, V64I, D66A
notes: One of the 5 humanized 161E5 antibodies, human IgG1/kappa; also called humanized antibody 161E5-VH0VL0
Take B4: the “EC50 (read off the curve)” value in test [2] and in test [3] was roughly 30 ng/mL in each case.

B5: 161E5-VH3VL2 (antibody, human IgG1, kappa, V domains shown)
VH: B2 VH with A40R, Y95F
VL: B2 VL
notes: One of the 5 humanized 161E5 antibodies, human IgG1/kappa; also called humanized antibody 161E5-VH3VL2
With B5, the “EC50 (read off the curve)” value in test [2] and in test [3] was roughly 30 ng/mL in each case.

B6: 161E5-VH2VL3 (antibody, human IgG1, kappa, V domains shown)
VH: B2 VH
VL: B2 VL with A49S
notes: One of the 5 humanized 161E5 antibodies, human IgG1/kappa; also called humanized antibody 161E5VH2VL3
With B6, the results for the Kd in test [1] and in test [8] were 0.00236 nM and 0.0145 nM, respectively. Further, the “EC50 (read off the curve)” value in test [2] and in test [3] was roughly 30 ng/mL throughout.
